Assay results: the supplement of paper PMC9170038

Tested on: MS2 coat protein
Experiment: apparent KD of MS2 coat protein; designed switch direction (-1 OFF switch, 1 ON switch): -1; higher = weaker reporter binding
Method in brief: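 The reported apparent KD is a per-design median over clusters, from curve fits of normalised cluster fluorescence. Protein titrations used SNAP-549-labelled MS2 coat protein, doubled from 0.7 or 1.5 nM to 3 µM, in Tris-HCl pH 7.5 buffer with KCl, MgCl2, BSA, DTT, tRNA and Tween-20, with no input, 200 uM small-molecule ligand, or an oligonucleotide input. The RNA switches were transcribed on Illumina chips by stalled E. coli RNA polymerase.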

[1] = input ligand: microRNA oligo, concentration not stated
[2] = Eterna round: R95, input ligand: microRNA oligo, concentration not stated
[3] = Eterna round: R95, input ligand: FMN 200 uM
[4] = Eterna round: R95, input ligand: none

| Sequence | apparent KD of MS2 coat protein (input ligand: FMN 200 uM) [nM] | apparent KD of MS2 coat protein [1] [nM] | apparent KD of MS2 coat protein (input ligand: none) [nM] | apparent KD of MS2 coat protein [2] [nM] | apparent KD of MS2 coat protein [3] [nM] | apparent KD of MS2 coat protein [4] [nM] |
| --- | --- | --- | --- | --- | --- | --- |
| GAUUGAGAGCAGGAUAUCUUAGAAAUGUAUGAAAGAGAAGGGCUCACAUGAGGAUCACCCAUGUGGUCCUAGAU [JL Dibiri mod 17] (Eterna round: R96, puzzle: Exclusion 6) | 162 | 17.9 | 25.4 |  |  |  |
| GCUUGUGGGCAAGGAUAUCCUACGCUGUUCUGGUUCGUGUCUGUCACAUGAGGAUCACCCAUGUGGGAGAAGGUGCAUUUGGGU [Design 58] (Eterna round: R96, puzzle: Exclusion NG 2) | 17.7 | 21.2 | 20.9 |  |  |  |
| CCAUAGUCAGGAUAUACAUGAGGAUCACCCAUGUAAAAUUUUAAUUUAAUUUGAAGGUGUAGAAGGGACCAACC [Ex3 #30] (Eterna round: R97, puzzle: Exclusion 3) | 26.3 |  | 33.2 |  |  |  |
| UGAUCUAGCGGAGGAUAUACAUGAGGAUCACCCAUGUAGUGGUGACGUGCGUACAUGUCACCUGUGUAGAAGGCCGCUAGAUCU [JL ENG2 3.58] (Eterna round: R96, puzzle: Exclusion NG 2) | 20.1 | 9.65 | 14.8 |  |  |  |
| UGUAACCUAGGAUAUACAUGAGGAUCACCCAUGUAAUGUAGUAUAGUGUGUGUGAGGUGUAGAAGGUGGGAUGU (Eterna round: R97, puzzle: Exclusion 3) | 60.4 |  | 60.2 |  |  |  |
| AUAAAUAAGGAGGAUAUCGUAUCGGAAACGAUACGAGAAGGUCUAACAUGAGGAUCACCCAUGUUCCUCAAUAA [Mat - Exclusion 6 - Eli Mod - D47] (puzzle: Exclusion 6) |  |  |  | 34.5 |  |  |
| GAAAAGGUAGGAUAUACGAGAAGAAAGGGUAGAGAAGAAACACAUGAGGAUCACCCAUGUAGAAGGACCAAAAG [salish99_ex2_r3_099] (puzzle: Exclusion 2) |  |  |  | 29.9 | 66.7 | 29.9 |
| AGAAAUUCAAGAGGAUAUCACAUGAGGAUCACCCAUGUAUAGCGCGCUACGCUAGUCCUCGUAUUUGAGAAGGUUUGAUAAAAG [Mat - Exclusion NG 2 - Mod of JL - D77] (Eterna round: R96, puzzle: Exclusion NG 2) | 14.3 | 14.3 | 15.7 |  |  |  |
| UGAGCUACAGGAUAUAUAUGGCGACCGUGAGGUCGAAGGUUACAUGAGGAUCACCCAUGUAGAAGGGUAGUUCU [Mat - Exclusion 2 - JL Mod - D17] (Eterna round: R97, puzzle: Exclusion 2) | 225 |  | 86.2 |  |  |  |
| GACCCUAGGGUCAGAUGCACAAGCUUUUUGCUCGUUUUAACAUGAGGAUCACCCAUGUCUAGUGGAUCUGAUCGGGC [Erorente] (puzzle: Sensor v3, turn-off variant 2) |  |  |  | 88.8 | 20.6 | 18.2 |
| AAUAACAGAGGAUAUACUGUUUUAUGUAUUUAUUAUUUUGAACAUGAGGAUCACCCAUGUAGAAGGCUGAUUGA [JMF 75] (puzzle: Exclusion 2) |  |  |  | 31.7 |  |  |
| CUCUUGUCAGGAUAUCUAAGCCACCUCCGGGCGGCCGAAUUAGAGAAGGGACAUGAGGAUCACCCAUGUAAAAG [Qumabi] (puzzle: Exclusion 4) |  |  |  | 138 | 30 | 174 |
| CUGAGCAGACGGAAAUCCAACAUGAGGAUCACCCAUGUCUCAAAAGCUUUUUGCUUGUCUUAUUCUCCUCUGUUCUC [Edtile] (puzzle: Sensor v3, turn-off variant 1) |  |  |  | 71.2 | 13.8 | 12.9 |
| ACAGUACUGCAAGGAUAUCGUUCUAGUUUAUUACGAGAAGGUGCUUUAGUUAUUUCUUUGGGUUGACAUGAGGAUCACCCAUGU [JR_ExcNG1_Sub056] (Eterna round: R96, puzzle: Exclusion NG 1) | 156 | 143 | 144 |  |  |  |
| GAUUGACAUGAGGAUCACCCAUGUGAGGAUAUCGGCUGGACCGUGUUGGCUUCCGUCGCGAGAAGGCGCAUAGG [Exclusion 1 V42] (puzzle: Exclusion 1) |  |  |  | 43.5 | 61 | 46.4 |
